# According to patent US20190112362A1 (published 2019):
# Molecular target: Human Tau monomer (recombinant 2N4R isoform, amino acids 2-441) (human, UniProt P10636 2-441)
# Test: SPR
# Sequence of Human Tau monomer (recombinant 2N4R isoform, amino acids 2-441) (P10636 other isoform, or with tags, fused parts or gaps): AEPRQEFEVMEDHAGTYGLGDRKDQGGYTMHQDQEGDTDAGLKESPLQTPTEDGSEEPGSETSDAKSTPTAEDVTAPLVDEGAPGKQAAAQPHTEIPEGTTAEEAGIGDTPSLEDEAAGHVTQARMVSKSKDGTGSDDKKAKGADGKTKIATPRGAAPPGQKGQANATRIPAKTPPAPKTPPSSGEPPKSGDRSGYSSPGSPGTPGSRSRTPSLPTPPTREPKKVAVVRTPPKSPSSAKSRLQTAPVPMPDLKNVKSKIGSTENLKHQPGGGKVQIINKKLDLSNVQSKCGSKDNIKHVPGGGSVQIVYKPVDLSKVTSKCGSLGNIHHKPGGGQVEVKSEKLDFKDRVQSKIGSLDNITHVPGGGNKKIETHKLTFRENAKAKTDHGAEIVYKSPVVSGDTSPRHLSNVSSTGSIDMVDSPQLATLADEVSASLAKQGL
binder,measurement,value
EDLHSNADTYFL [hu37D3.v29.8],Kd,40.9 nM
